{"source": "patent US20250313643A1", "about": "(UNM RAINFOREST INNOVATIONS, published 2025)", "binders": {"B1": {"name": "mscFv77-2 Parental (scFv, V domains shown)", "VH": "EVQLQQAGAELVRSGASVKLSCTASGFNIKDYYIHWVKQRPEQGLEWIGWIDPENGDTEYAPKFQGKATMTADTSSNTAYLQLSSLTSEDTAVYYCNAGGRFAYWGQGTLVTVSA", "VL": "DIVMTQSPSSLSVSAGEKVTMSCKSSQSLLNSGNQKNYLAWYQQKPGQPPKLLIYGASTRESGVPDRFTGSGSGTDFTLTISSVQAEDLAVYYCQNDHSYPYTFGGGTKLEIK", "notes": "Murine single-chain Fv; It has a kappa light chain; also called murine parent scFv; parental scFv"}, "B2": {"name": "scFv77-2 hu HC2-LC3 (scFv)", "scFv": "MAQVQLVQSGAEVKKPGASVKVSCKASGFNIKDYYIHWVRQAPGQGLEWIGWIDPENGDTEYAPKFQGRATMTADTSISTAYMELSRLRSDDTAVYYCNAGGRFAYWGQGTLVTVSSGGGGSGGGGSGGGGSDIQMTQSPSTLSASVGDRVTITCKSSQSLLNSGNQKNYLAWYQQKPGKAPKLLIYGASTRESGVPSRFSGSGSGTEFTLTISSLQPDDFATYYCQNDHSYPYTFGGGTKVEIKENLYFQGAAALEHHHHHH", "notes": "also called humanized CCKBR scFv HC2-LC3; CCKBR hscFv HC2-LC3"}, "B3": {"name": "HC2-LC2 (scFv)", "scFv (VH-linker-VL, with protease site and His tag)": "B2 scFv with T142S, E208D, D219E, V242L", "notes": "also called scFv77-2 hu HC2-LC2; scFv77-2 hu HC2-linker-LC2"}}, "key": {"CCKBR peptide": {"target": "T1, CCKBR peptide", "T1 construct": "It may be the same as m3 or m4; also called target CCKBR peptide; target peptide (immunization and selection)", "T1 peptide": "CETPRIRGTGTRELE", "assay": "ELISA (panel 'Binding Affinity by ELISA'), OD450nm against nM scFv. The coated peptide is not named in the panel."}, "[1]": {"target": "T2, human CCKBR extracellular peptide (human, UniProt P32239 39-53)", "T2 construct": "domain: extracellular fragment of human CCK-BR; also called human peptide; human CCKBR peptide", "assay": "indirect ELISA on human CCKBR peptide, OD450nm against nM scFv; column head 'Apparent kD (nM)'"}, "[2]": {"target": "T2, human CCKBR extracellular peptide", "assay": "Assay and target are not stated on the sheet. The Kd stands in the legend box of an in vivo plot. The text describes affinity measurement of the humanized variants against the human peptide."}, "[3]": {"target": "T2, human CCKBR extracellular peptide", "assay": "ELISA affinity measurement"}}, "note": "Numbering of substitutions follows the chain as printed.", "data": [{"binder": "B1", "values": [{"measurement": "Kd", "setting": "CCKBR peptide", "result": 195, "unit": "nM"}, {"measurement": "Kd", "setting": "[1]", "result": 109, "unit": "nM"}]}, {"binder": "B2", "values": [{"measurement": "Kd", "setting": "[2]", "result": 3.1, "unit": "nM"}, {"measurement": "fold improvement in affinity compared with parental mscFv77-2", "setting": "[3]", "result": "> 25", "unit": "fold"}, {"measurement": "Kd", "setting": "[1]", "result": 4.3, "unit": "nM"}]}, {"binder": "B3", "values": [{"measurement": "Kd", "setting": "[2]", "result": 9.8, "unit": "nM"}]}]}
